Numbering of substitutions follows the chain as printed.
B1: H4H12922P2 (antibody, human IgG4 S228P, kappa, V domains shown)
VH: QVQLVESGGGVVKPGGSLRLSCAASGFTFSNSGIHWVRQAPGKGLEWVALISYAGSNKYYADSVKGRFTISRDNSKNTLSLQMNSLRAEDTAVYYCAKEVWTGTYDSFDMWGRGTMVTVSS
VL: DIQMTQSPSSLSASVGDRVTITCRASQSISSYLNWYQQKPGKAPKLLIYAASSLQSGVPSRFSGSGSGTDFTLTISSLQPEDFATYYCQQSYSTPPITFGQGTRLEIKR
notes: anti-IL2Rγ monoclonal antibody expressed with human IgG4 Fc; also called REGN7256
B2: H4H12858P (antibody, human IgG4 S228P, kappa, V domains shown)
VH: EVQLVESGGDLVQPGGSLRLSCTASGFIFRNYAMNWVRQAPGKGLEWLSGILGSNDNTYYVDSVKGRFTISRDNSRNTLYLQMNSLRAEDSAVYYCAKGDAGGFDYWGQGTLVTVSS
VL: DVVMTQSPLSLPVILGQPASISCRSSQSLVSSDGNTYLNWFQQRPGQSPRRLIYKVSNRDSGVPDRFSGSGSGTDFTLKISRVEAEDVGAYYCMQGSYWPPTFGQGTKLEIKR
notes: anti-IL2Rγ monoclonal antibody expressed with human IgG4 Fc; also called REGN9433
B3: H4H12863P (antibody, human IgG4 S228P, kappa, V domains shown)
VH: QVQLVESGGGVVQPGRSLRLSCTASGFTFRSYDMYWVRQAPGKGLEWVSVITYDGNNKYYADSVKGRFTISRDNSKNTLFLQMSSLRPEDTAVYYCAKRGLIWVGESFDYWGQGTLVTVSS
VL: DIQMTQSPSTLSASVGDRVTITCRASQSINSWLAWYQQKPGKAPNLLIYKASSLESGVPSRFSGSGSGTEFTLTISSLQPDDFATYYCQQYKSYSWTFGQGTKVEIKR
notes: anti-IL2Rγ monoclonal antibody expressed with human IgG4 Fc
B4: H4H12859P (antibody, human IgG4 S228P, kappa, V domains shown)
VH: QVQLVQSGAEVKKPGASVRVSCKASGYTFTDYDIHWVRQAPGHGLEWMGWINPNSGGTNYAQKFQGRVTMTRDTSISTVYMDLSRLRSDDTAVYYCARADYSSSYYYYGMDVWGQGTTVTVSS
VL: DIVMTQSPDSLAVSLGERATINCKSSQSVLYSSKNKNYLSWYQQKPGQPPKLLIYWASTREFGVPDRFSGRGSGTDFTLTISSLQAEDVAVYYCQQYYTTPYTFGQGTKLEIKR
notes: as for B3
B5: H4H12874P (antibody, human IgG4 S228P, kappa, V domains shown)
VH: QVQLVESGGGVVQPGRSLRLSCAASGFNFRNFGMHWVRQAPGKGLEWVAGILYDGSSKYYADSVKDRFTISRDNSKNTLFLQMNSLRAEDTAMYYCAKEEDTAMVPFDSWGPGTLVTVSS
VL: DIQLTQSPSFLSASVGDRVTITCWASQGISSYLAWYQQKPGKAPTLLIYAASTLQSGVPSRFSGSGSGTEFTLTISSLQPEDFASYYCQQLKSYPLTFGGGTKVEIKR
notes: as for B3
B6: H4H12871P (antibody, human IgG4 S228P, kappa, V domains shown)
VH: QVQLQESGPGLVKPSQTLSLTCTVSGGSITSGGYYWSWIRQYPGQGLEWIGYIYYSGKTYYNPSFTSRITISVDTSKKQFSLKMSSVTAADTAVYYCARAGFTSSNGWFDPWGQGTLVTVSS
VL: DIQMTQSPSSLSASVGDRVTITCRASQNIRSYLNWYQQKPGKAPKLLIYSASSLQSGVPSRFSGSGSGTDFTLTISSLQPEDFPTYYCQQTYSSPWTFGPGTKVEIKR
notes: anti-IL2Rγ monoclonal antibody expressed with human IgG4 Fc; also called REGN9434

How the values were obtained:
[1] = target: T1, Human IL2Rγ extracellular domain expressed with a C-terminal myc-myc-hexahistidine tag (human); experiment: SPR Biacore 4000, mAb captured by anti-hFc, HBS-ET, 37C
T1 construct: also called hIL-2Rg-MMH; hIL-2RG-MMH
T1 chain: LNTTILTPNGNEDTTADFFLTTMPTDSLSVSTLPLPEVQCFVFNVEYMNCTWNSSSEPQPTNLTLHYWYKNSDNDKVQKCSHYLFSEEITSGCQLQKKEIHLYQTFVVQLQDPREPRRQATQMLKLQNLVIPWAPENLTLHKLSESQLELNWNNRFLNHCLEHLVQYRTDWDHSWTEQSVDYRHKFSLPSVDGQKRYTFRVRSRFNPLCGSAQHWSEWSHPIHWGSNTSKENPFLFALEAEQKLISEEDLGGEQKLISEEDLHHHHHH
Procedure: (§1) Equilibrium dissociation constants (KD values) for IL-2Rγ binding to purified anti-IL2Rγ monoclonal antibodies were determined using a Biacore 4000 instrument equipped with a real-time surface plasmon resonance biosensor. All binding studies were performed in 10 mM HEPES, 150 mM NaCl, 3 mM EDTA, and 0.05% v/v Surfactant Tween-20, pH 7.4 (HBS-ET) running buffer at 25° C. and 37° C. The Biacore sensor surface was first derivatized by amine coupling with a monoclonal mouse anti-human Fc antibody (GE, # BR-1008-39) to capture anti-IL2Rγ monoclonal antibodies.
(§2) The dissociation of monoclonal antibody bound IL2Rγ reagents were monitored for 8-10 minutes in HBS-ET running buffer. Kinetic association (kₐ) and dissociation (kd) rate constants were determined by fitting the real-time sensorgrams to a 1:1 binding model using Scrubber 2.0c curve fitting software. Binding dissociation equilibrium constants (KD) and dissociative half-lives (t_{1/2}) were calculated from the kinetic rate constants as: […]

[2] = target: T2, Macaca fascicularis IL2Rγ extracellular domain expressed with a C-terminal myc-myc-hexahistidine tag (Macaca fascicularis); experiment: SPR Biacore 4000, mAb captured by anti-hFc, HBS-ET, 25C
T2 construct: also called mfIL-2Rg-MMH; mfIL-2RG-MMH
T2 chain: T1 chain with T14A, A16T, T22S, H141R, T228S
Procedure: as §1, §2

[3] = target: T1, Human IL2Rγ extracellular domain …; experiment: as above
Procedure: as §1, §2

[4] = target: T2, Macaca fascicularis IL2Rγ extracellular …; experiment: SPR Biacore 4000, mAb captured by anti-hFc, 37C, dissociation in PBS-T pH 7.4
Procedure: (§3) The dissociation rate constant (kd) for binding of IL-2Rγ reagents to purified anti-IL2Rγ monoclonal antibodies was determined using a real-time surface plasmon resonance based Biacore 4000 biosensor platform. […] The CM5 Biacore sensor surface derivatized by amine coupling with monoclonal mouse anti-human Fc antibody (GE, Catalog # BR-1008-39) was used to capture anti-IL2Rγ monoclonal antibodies expressed with human IgG4 Fc. All the IL2Rγ reagents were expressed with a C-terminal myc-myc-hexahistidine tag (subsequently referred to with a -MMH suffix). […] The dissociation of bound IL-2Rg-MMH was performed in PBS-T-pH7.4 or PBS-T-pH6.0 running buffers for 6 minutes.
(§4) Dissociation rate constants (kd) in two running buffers were determined by fitting the real-time binding sensorgrams to a 1:1 binding model using Scrubber 2.0c curve-fitting software. Values of dissociation rate for […] mAb binding to hIL-2RG-MMH and mfIL-2RG-MMH at 25° C. and 37° C. in PBS-T-pH7.4 and PBS-T-pH6.0 is shown in Table 2-1 through Table 2-8.

[5] = target: T2, Macaca fascicularis IL2Rγ extracellular …; experiment: SPR Biacore 4000, mAb captured by anti-hFc, 37C, dissociation in PBS-T pH 6.0
Procedure: as §3, §4

Binder | 100 nM Ag Bound [1] [RU] | Kd [1] [nM] | koff [1] [s⁻¹] | kon [1] [M⁻¹ s⁻¹] | t1/2 [1] [min] | 100 nM Ag Bound [2] [RU] | Kd [2] [nM] | koff [2] [s⁻¹] | kon [2] [M⁻¹ s⁻¹] | t1/2 [2] [min] | 100 nM Ag Bound [3] [RU] | Kd [3] [nM] | koff [3] [s⁻¹] | kon [3] [M⁻¹ s⁻¹] | t1/2 [3] [min] | 100 nM Ag Bound (RU) [4] [RU] | koff [4] [s⁻¹] | t1/2 [4] [min] | 100 nM Ag Bound (RU) [5] [RU] | koff [5] [s⁻¹] | further results
B1 | 44 | 2.58 | 0.00105 | 407000 | 11 | 76 | 1.64 | 0.000386 | 235000 | 30 | 79 | 1.3 | 0.000386 | 297000 | 30 | 185 | 0.000693 | 17 | 146 | 0.00344 | t1/2 [5]: 3.4 min
B2 | 57 | 4.52 | 0.00174 | 386000 | 7 | 58 | 2.36 | 0.000269 | 114000 | 43 | 67 | 1.23 | 0.000316 | 257000 | 37 | 143 | 0.000542 | 21 | 134 | 0.00155 | t1/2 [5]: 7 min
B3 | 77 | 4.11 | 0.00151 | 367000 | 8 | 81 | 1.91 | 0.00036 | 189000 | 32 | 91 | 1.7 | 0.000384 | 226000 | 30 | 177 | 0.000606 | 19 | 141 | 0.00208 | t1/2 [5]: 6 min
B4 | 18 | 187 | 0.0129 | 69000 | 0.9 | 17 | 126 | 0.00507 | 40300 | 2.3 | 27 | 87.6 | 0.00321 | 36600 | 4 | 47 | 0.00397 | 2.9 | 31 | 0.0123 | t1/2 [5]: 0.9 min
B5 | 52 | 10.4 | 0.00125 | 120000 | 9 | 50 | 4.28 | 0.000306 | 71500 | 38 | 57 | 3.57 | 0.000305 | 85200 | 38 | 92 | 0.000541 | 21 | 82 | 0.00255 | t1/2 [5]: 5 min
B6 | 61 | 10.6 | 0.00266 | 250000 | 4 | 72 | 5.19 | 0.000905 | 174000 | 13 | 77 | 5.03 | 0.001 | 199000 | 12 | 143 | 0.00102 | 11 | 141 | 0.00227 | t1/2 [5]: 5 min
